In patent US20250231186A1:

Tests used:
[1] = target: MCC 88-103 peptide tethered to full-length I-E^k on M12 cells (mouse) (UniProt P04224); assay: cell coupling (CATS) with MCC M12 cells, flow cytometry
[2] = target: T102S altered peptide ligand of MCC tethered to full-length I-E^k on M12 cells (mouse) (UniProt P04224); assay: cell coupling (CATS) of transferred 5c.c7 CD4+ T cells with T102S M12 cells, flow cytometry
[3] = target: MCC 88-103 peptide tethered to full-length I-E^k on M12 cells (mouse) (UniProt P04224); assay: cell coupling (CATS) of 5c.c7 CD4+ T cells with MCC M12 cells, Hb M12 as dump, flow cytometry
[4] = target: I-E^k MHCII on tethered pMHC-II expressing M12 cells; assay: cell coupling (CATS) of B10.A CD4+ T cells with pre-blocked pMHC+ M12 cells
[5] = target: MCC 88-103 peptide tethered to full-length I-E^k on M12 cells (mouse) (UniProt P04224); assay: cell coupling (CATS) of B10.A CD4+ T cells with M12 cells pre-blocked with 20 µg/mL 14-4-4S; competitor: TCRs of B10.A CD4+ T cells
[6] = target: T102S altered peptide ligand of MCC tethered to full-length I-E^k on M12 cells (mouse) (UniProt P04224); assay: as above
[7] = target: mouse hemoglobin d allele Hb 64-76 peptide tethered to full-length I-E^k on M12 cells (mouse) (UniProt P04224); assay: as above
[8] = target: 5c.c7 TCR on CD4+ T cells from 5c.c7 TCR Rag KO mice (mouse); assay: T102S tetramer staining of transferred 5c.c7 CD4+ T cells, flow cytometry

Question: Which coupling percentage [1] does the source give for “5c.c7 TCR expressed on 58α^-β^- hybridoma cells (α chain fused C-terminally to mEGFP)” here?
Answer: Its coupling percentage is 30%.

Question: How did the percentage of 5c.c7 CD4+ T cells identified [2] turn out when “5c.c7 TCR on CD4+ T cells from 5c.c7 TCR Rag KO mice” was run?
Answer: Its percentage of 5c.c7 CD4+ T cells identified is 70%.

Question: And the coupling percentage [3]?
Answer: The coupling percentage was 60 to 85%.

Question: 14-4-4S anti-I-E^k MHCII antibody was tested. Which fold lower relative coupling in blocked state [4] did it give?
Answer: The fold lower relative coupling in blocked state was 3 to 5 fold.

Question: What about the fold decrease in coupling when blocked [5] of the same substance?
Answer: Its fold decrease in coupling when blocked is 4 fold.

Question: And the fold decrease in coupling when blocked [6]?
Answer: Its fold decrease in coupling when blocked is 3 fold.

Question: What about the fold decrease in coupling when blocked [7] of the same substance?
Answer: The fold decrease in coupling when blocked was 4 fold.

Question: How did the percentage of 5c.c7 CD4+ T cells identified [8] turn out when “T102S:I-E^k tetramer (from UniProt P22629 37-163; P04224 26-216) (peptide-MHC)” was run?
Answer: Its percentage of 5c.c7 CD4+ T cells identified is 0%.
